The values below come from article PMC5553682.

This assay has as its target GFP-Cav3.1 pore mutant (human). Put plainly: FRET or BRET; live tsA-201 cells also expressing Kir2.1, exposed to high [K]o (50 mM); % change of the mKate:GFP ratio against time 0; the decrease was prevented by TTA-P2, mibefradil + Ni2+ or BAPTA-AM.

Regarding “mKate-CaM (from UniProt P0DP23 1-149) (natural protein)”, the % change of FRET (mKate:GFP ratio) in high [K]o was 4.55%.
